Experimental data reported in patent publication US9738880B2, “Lysosomal protein targeting sequence and therapeutic applications of same” (Children's Hospital Medical Center, priority 2013, dated 2017).
Substitutions are numbered along the chain they refer to. “Also recorded” adds a separate entry of the source. Blank lines part the entries; values can stand above or below the molecule they belong to.

Tests used:
[1] = molecular target: T1, GCase binding to ldLIMP2 (Homo sapiens, UniProt Q14108); assay: Competitive immunoprecipitation of GCase with ldLIMP2 at increasing molar ratios of peptide
T1 construct: Purified luminal domain LIMP-2 (1d-LIMP2) was custom made (Sino Biological Inc., PRC.); purchased Sino Biological Inc
T1 sequence (Q14108 28-433 limits assumed): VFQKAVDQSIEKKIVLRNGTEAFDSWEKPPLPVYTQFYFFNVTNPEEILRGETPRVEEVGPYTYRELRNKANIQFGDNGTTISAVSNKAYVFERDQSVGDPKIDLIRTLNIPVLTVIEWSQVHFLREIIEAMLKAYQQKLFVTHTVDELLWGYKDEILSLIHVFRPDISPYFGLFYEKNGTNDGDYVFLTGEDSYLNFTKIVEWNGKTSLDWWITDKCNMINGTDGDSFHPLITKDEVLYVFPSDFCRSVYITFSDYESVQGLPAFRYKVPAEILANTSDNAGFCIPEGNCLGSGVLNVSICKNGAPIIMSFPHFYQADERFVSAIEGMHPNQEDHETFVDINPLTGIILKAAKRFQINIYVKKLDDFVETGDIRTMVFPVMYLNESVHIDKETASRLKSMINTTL
Procedure: FIG. 8A-FIG. 8C: Immunoprecipitation of GCase in the presence of ldLIMP2 and increasing molar ratios of the WT (DSPIIV (SEQ ID NO 15)) peptide. FIG. 8A depicts immunoprecipitation of GCase and LIMP-2. Purified WT GCase was preincubated with purified ldLIMP2 in a molar ratio of 1:1. Then, unlabeled DSPIIV (SEQ ID NO 15) was added in varying molar excesses (0 to 5×, top of figure) over GCase, incubated, and then immunoprecipitated with Protein G-coupled anti-LIMP-2 antibody beads. The beads were then eluted and the eluants were analyzed for GCase and ldLIMP2 on Western blots using the specified antibodies. […] In the bottom panel, ldLIMP2 recovery was the same at all peptide ratios. FIG. 8B depicts immunoprecipitation of GCase and LIMP-2. Purified ldLIMP2 was preincubated with unlabeled WT peptide at various molar ratios. Then, purified WT GCase was added in a 1:1 molar ratio with ldLIMP2, incubated, and then immunoprecipitated and processed as in FIG. 8A. […] FIG. 8C depicts immunoprecipitation of GCase and LIMP-2. Purified WT GCase was preincubated with purified ldLIMP2 in a molar ratio of 1:1. Then peptide DDQRLLL, a potential candidate for the GCase ligand for ldLIMP2, was added in varying molar excesses over WT GCase, incubated, and then immunoprecipitated and processed as in FIG. 8A. […] DDQRLLL (SEQ ID NO 14) is a dileucine peptide outside of the localized targeting region of DSPIIVDITKD (SEQ ID NO 3) (see FIG. 3).
FIG. 14A-FIG. 14B: Immunoprecipitation of GCase in the presence of ldLIMP2 and increasing molar ratios of the WT (DDQRLLL (SEQ ID NO 14)) peptide. In FIG. 14A or FIG. 14B, ldLIMP2 and DDQRLLL (SEQ ID NO 14) were incubated before (as shown in FIG. 14A) or together with (as shown in FIG. 14B) GCase and analyzed as in FIG. 8A-FIG. 8C.
Immunoprecipitation and Competition Studies: To further evaluate the interaction of ldLIMP-2, WT GCase, and the DSPIIV (SEQ ID NO 15) peptide, competitive immunoprecipitation experiments were conducted using increasing concentrations of the WT peptide in competition with GCase for binding (FIG. 8A). […]

[2] = molecular target: T2, ldLIMP2 (Homo sapiens, UniProt Q14108); assay: Fluorescence polarization binding and competition of DDQRLLL GCase peptides to ldLIMP2; conditions: ldLIMP2 fixed at 1000 nM; FIG. 13
T2 construct: Purified luminal domain LIMP-2 (1d-LIMP2) was custom made (Sino Biological Inc., PRC.); purchased Sino Biological Inc
T2 sequence (Q14108 28-433 limits assumed): T1 sequence (Q14108 28-433 limits assumed)
Procedure: FIG. 13A-FIG. 13B: Competition and binding of fluorescent labeled or unlabeled DDQRLLL (SEQ ID NO 14) GCase peptides to ldLIMP2. FIG. 13A depicts the δmP of the WT (DDQRLLL (SEQ ID NO 14)) or variously alanine substituted labeled peptides were plotted against the corresponding unlabeled peptide competitors. Note that the fixed ldLIMP2 concentration was 1000 nM or 20 times that used in similar studies (FIG. 7A-FIG. 7C). For all peptides the δmP were near or at background levels. FIG. 13B depicts the binding δmP for the various peptides as in FIG. 13A. The signals were near background levels for all peptides using concentrations 5 to 10 times that for DSPIIV (SEQ ID NO 15) and with a 20 times greater LIMP2 fixed concentration.
Fluorescence Polarization: The DSPIIV (SEQ ID NO 15) and its mutants, and DDQRLLL (SEQ ID NO 14) peptides (FITC labeled or non-labeled) were synthesized (American Peptide Co., Vista, Calif.). Lyophilized peptides were solubilized in acetonitrile and then were diluted at least 10,000-fold into the reactions for fluorescence polarization assessments. The reactions were done at least in duplicate at various peptide and LIMP-2 concentrations (SpectraMax M5, Molecular Device). Fluorescence polarization data were collected and analyzed with SoftMax Pro 5.0 software. Reaction mixtures contained 100 mM phosphate, pH 6.8 and 1 mM DTT.

[3] = CRIM specific activity of GCase variants (activity per cross-reacting immunological material); type: biochemical; conditions: FIG. 11A, 11B right panels
Procedure: (§1) Enzyme Assays: Cell pellets were homogenized in 0.25% Na-taurocholate and 0.25% Triton X-100. GCase activities were determined fluorometrically with 4 mM 4MU-Glc in 0.2M/0.1M citric-phosphate, pH 5.6 (18, 54)
Corresponding effects on the secretion of GCases from the cells containing various mutations in DSPIIVDITDK were found by assessing the activity of GCases in the media and cell lysate (FIG. 11 A-C). […] Using this assessment, the ratio of CRIM specific activities relative to WT (assigned 100%) for AAA, TAD, and AKA were 20%, 32%, and 49%, respectively (FIG. 11A, right panel), or that more GCase protein was required from the respective mutants to achieve the same enzyme activity as the WT. […] For the other mutants this ranged from 22-36%. This compares to ˜0% for the WT or D399E GCases Immunoaffinity anti-GCase column purification of the various GCases from media confirmed the excesses of these mutant GCases and the inability to detect WT or D399E GCases in media (data not shown).

[4] = molecular target: T2, ldLIMP2; assay: Immunoprecipitation of alanine substituted GCases (TKD sequence) with ldLIMP2; type: binding; conditions: for binding of GCase variant to ldLIMP2, in words: GCase:LIMP2 1:1, immunoblot, FIG. 6
Source text: FIG. 6A-6E: Immunoprecipitation of the alanine substituted GCases in the TKD sequence with ldLIMP2. In panels shown in FIG. 6A to FIG. 6D, the lanes 1 through 6 correspond to the band densities indicated by the bars in FIG. 6E. […] The quantitative results are shown in (FIG. 6E) in which 1, 2, 3, and 4 correspond to WT, AAA, AKA, and AKD, respectively.
Immunoprecipitation of GCases with mutations in the TKD sequence: For immunoblots, Gba1 knockout mouse fibroblasts (null/null) were transfected with the GBA1 constructs (WT or mutants) and expressed for 5 days. The GCases from harvested cell lysates were purified using a GCase antibody affinity column (Dynabeads protein G crosslinked (BS3) with rabbit anti-human GCase antibody). The purified GCases were then mixed with LIMP2 (1:1), incubated (30 min.), and applied to another affinity column (Dynabeads protein G crosslinked (BS3) with rabbit anti-LIMP2 antibody). Aliquots of each step (loading, wash and eluent) were collected and analyzed on 12.5% SDS gels. Immunoblots were developed using anti-human GCase antibody and AP conjugated color development kits. Mock experiments with either non-LIMP2 proteins added or no GCases added, were used as control. The quantitations of these immunoprecipitation data were obtained from densitometry measurements of the gels. The no-LIMP-2 bars are the controls for comparison, since GCase was processed through all steps without LIMP-2 to account for any losses of GCase; About 50% of the GCase was lost during processing.

[5] = test system: Gba1−/− fibroblasts; assay: GCase activity in media and cell lysates after transient transfection (secretion and retention); type: cell-based, mouse; conditions: media, FIG. 11A, 11B
Source text: FIG. 11A-FIG. 11C: Secretion and retention of GCase with alanine variants in the TDK (FIG. 11A) or DSPIIV (SEQ ID NO 15) (FIG. 11B and FIG. 11C) sequences. FIG. 11A depicts activities in the media of Gba1−/− fibroblasts following transient transfections of each of the specified alanine substituted GCases in the TDK region. […] FIG. 11B depicts in the Left Panel: Activities in the media following transient transfections of various DSPIIV (SEQ ID NO 15) alanine substituted GCases and the % of GCase secreted. The latter was calculated as {ng GCase (in media)/[ng GCase (in media)+ng (GCase in lysates)]}×100 (also see Table 2). […] The transfections alone (Null+lipo) had no effect. […] FIG. 11C deicts in cellular lysate GCase activities from the various alanine substituted GCases in the DSPIIV (SEQ ID NO 15) sequence as indicated. […] The doubly alanine substituted GCase had little intracellular activity, i.e., nearly all the GCase was secreted into the media.
as §1

[6] = test system: Gba1 null/null mouse fibroblasts; assay: Immunofluorescence co-localization of expressed GCase constructs (lysosome vs ER/Golgi); type: cell-based; conditions: for lysosomal localization of GCases with alanine substitutions in the TKD sequence, in words: FIG. 5; for co-localization to / retention in the ER/Golgi, in words: calnexin or calreticulin
Source text: Immunofluorescence studies (IF): Mouse Gba1 null/null were used for the host cells for all transfection experiments. pCMV-AC-GFP Mammalian cell expression vector was used for expression of various GCases that included the TKD region (amino acids 407, 408 and 409) or the DSPIIV (SEQ ID NO 15) region (amino acids 399-404). Direct-labeled first antibodies were applied for IF detection; including anti-human GCase, -Calreticulin, -calnexin, -LIMP2, and -Lamp1. Lysotracker and ER tracker (Invitrogen) were also used as indicated. Analyses were done with a Zeiss AxioVert 200M with ApoTome. Co-localization analyses to obtain Pearson Indices were conducted using a module in the Axiovision 4.8 software.
Initial studies to localize the targeting peptide were conducted with GCase-GFP fusion constructs that had COOH-terminal deletions of GCase (FIG. 1). The constructs are designated as GCase-XX or XXX where the Xs represent the number of GCase amino acids deleted from the COOH-terminus. These constructs were transfected into and expressed in Gba1 null/null mouse fibroblasts using the CMV promoter (pCMV-AC-GFP or YFP) Immunofluorescence analyses using anti-human GCase IgG (green) and Lysotracker (Red) were used for colocalization of GCase to the lysosome (Red) or GCase (green) and Calreticulin or Calnexin (Red) for colocalization to the ER or Golgi (FIG. 2). […] Since LIMP-2 is the receptor for targeting of GCase to the lysosome, our working hypothesis was that the peptide sequence for binding of GCase to LIMP-2 was located within amino acids 347-422.

competition of bound GCase off ldLIMP2, in words ([1]; GCase preincubated with ldLIMP2 1:1, then peptide 0 to 5× molar excess): did not compete GCase off of ldLIMP2
Molecule: DDQRLLL (GCase di-leucine sequence)
competition with GCase for ldLIMP2 binding, in words ([1]; ldLIMP2, peptide and GCase incubated together, up to 5× molar excess): did not complete with GCase; also recorded: does not compete with GCase
prevention of GCase binding to ldLIMP2, in words ([1]; peptide preincubated with ldLIMP2 before GCase was added, up to 5× molar): did not complete with GCase; also recorded: does not compete with GCase
binding to ldLIMP2 (δmP), in words [2]: lack of binding; also recorded: little or no binding

binding of GCase variant to ldLIMP2, in words [4]: bound similarly
B1: TAD: human GCase with TKD (407-409) replaced by TAD (protein)
chain: ARPCIPKSFGYSSVVCVCNATYCDSFDPPTFPALGTFSRYESTRSGRRMELSMGPIQANHTGTGLLLTLQPEQKFQKVKGFGGAMTDAAALNILALSPPAQNLLLKSYFSEEGIGYNIIRVPMASCDFSIRTYTYADTPDDFQLHNFSLPEEDTKLKIPLIHRALQLAQRPVSLLASPWTSPTWLKTNGAVNGKGSLKGQPGDIYHQTWARYFVKFLDAYAEHKLQFWAVTAENEPSAGLLSGYPFQCLGFTPEHQRDFIARDLGPTLANSTHHNVRLLMLDDQRLLLPHWAKVVLTDPEAAKYVHGIAVHWYLDFLAPAKATLGETHRLFPNTMLFASEACVGSKFWEQSVRLGSWDRGMQYSHSIITNLLYHVVGWTDWNLALNPEGGPNWVRNFVDSPIIVDITADTFYKQPMFYHLGHFSKFIPEGSQRVGLVASQKNDLDAVALMHPDGSAVVVVLNRSSKDVPLTIKDPAVGFLETISPGYSIHTYLWRRQ
CRIM specific activity relative to WT (assigned 100%) [3]: 32%
increase of GCase activity in the media compared to WT ([5]; transient transfection): ~8 fold

binding of GCase variant to ldLIMP2 ([4]; GCase on beads vs wash, FIG. 6C): about 50%
binding of GCase variant to ldLIMP2, in words [4]: much less bound
lysosomal localization of GCases with alanine substitutions in the TKD sequence, in words [6]: less lysosomal localization
B2: AKA: human GCase with TKD (407-409) replaced by AKA (protein, listed as Homo sapiens)
chain: B1 chain with T407A, A408K, D409A
CRIM specific activity relative to WT (assigned 100%) [3]: 49%
co-localization to / retention in the ER/Golgi, in words [6]: majority of the enzymes co-localized to the ER/Golgi

lysosomal localization of GCases with alanine substitutions in the TKD sequence, in words [6]: no lysosomal localization
B3: AAA: human GCase with triple alanine substitution of TKD (positions 407-409) (protein, listed as Homo sapiens)
chain: B1 chain with T407A, D409A
CRIM specific activity relative to WT (assigned 100%) [3]: 20%
binding of GCase variant to ldLIMP2, in words [4]: essentially no binding; also recorded: did not bind
GCase activity in the media / secretion, in words [5]: the least
co-localization to / retention in the ER/Golgi, in words [6]: majority of the enzymes co-localized to the ER/Golgi; also recorded: abundant colocalization to the ER
